B1: ATL3 (parent)
chain: FSFRYQQELEEEIKELYENFCKHN
B2: ACBD3 (parent)
chain: YVASHKIEKEEQEKKRKEEEERRR

Variants of: B1
Assay: protein stability index of a GFP-peptide fusion (GPS, HEK-293T) (PSI 1-6); higher = more stable
Conditions: c terminus: a fixed tail appended
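Further: lentivirally expressed fusions sorted by FACS into six bins by GFP to DsRed ratio, PSI derived from sequencing read proportions per bin multiplied by bin number.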

Protein stability index: each site, then its substitutions
E10: L 1.6; S 2.23; A 2.02; K 2.2; G 1.9; P 2.61; T 2.37; I 1.46; W 2.02; D 3.31; F 2.06; R 1.78; H 1.81; V 1.47; Y 1.75; N 2.13; M 1.75; C 1.77; Q 2
E11: R 1.98; L 1.58; V 1.53; F 1.45; M 2.37; H 2.29; P 2.25; W 1.8; I 2.11; A 2.76; N 2.69; C 1.61; Q 2.18; T 2.74; S 2.58; K 2.55; D 2.38; G 2.21; Y 1.6
L16: G 3.3; K 3.02; N 2.86; S 2.79; A 2.56; Q 4.14; T 2.5; H 3.48; M 3.39; P 3; F 2.62; R 2.71; E 3.18; D 3.13; Y 2.13; V 2.28; W 2.03; I 2.59; C 2.42
S2: E 2.52; M 1.52; T 2.36; I 1.7; R 2.62; L 1.85; F 1.75; C 3.27; A 2.51; D 2.93; N 2.37; G 2.53; Q 2.6; P 2.63; K 2.58; H 2.29; W 1.8; V 1.65; Y 2.73
E12: L 2.74; Y 2.06; T 1.79; P 2.17; M 1.76; D 2.84; W 2.04; I 2.07; H 2.29; N 2.09; V 2.08; Q 2.53; G 2.1; S 2.03; A 1.97; K 2.27; R 1.76; C 1.76; F 1.91
K14: V 2.17; F 1.87; Y 1.62; D 2.81; T 2.29; G 2.37; E 2.53; A 2.33; S 1.66; L 1.49; H 2.28; P 2.05; Q 2.39; I 1.62; W 2.73; M 1.53; N 2.31; R 2.72; C 2.15
L9: N 2.81; W 2.66; G 2.75; K 2.68; E 2.11; I 2.5; Y 2.24; H 3.64; R 3.33; D 3.2; F 2.16; V 2.11; C 3.22; Q 3.09; T 3.48; S 2.41; A 2.6; M 2.65; P 2.63
Q7: H 2.2; N 2.51; L 1.92; V 2.17; F 1.65; E 2.64; G 3.13; Y 2.91; A 2.04; R 2.3; W 1.84; K 2.46; S 2.24; C 2.15; I 1.75; D 2.35; T 2.59; P 3.07; M 2.39
F3: W 2.82; T 3.23; C 2.59; D 3.14; M 2.96; Y 2.01; N 2.85; L 2.7; S 2.79; P 3.79; I 2.52; V 2.51; E 3.04; Q 4.39; R 2.83; H 3.23; A 2.93; K 2.09; G 3.15
I13: F 2.66; G 2.29; R 2.53; H 2.82; P 2.45; A 2.31; T 2.91; L 1.99; Q 2.19; M 2.65; C 3.79; V 2.07; E 2.9; K 2.79; W 2.66; N 2.46; D 2.69; S 2.17; Y 2.83
Y17: C 3.09; H 3.05; F 2.16; I 2.92; D 2.92; A 3.16; G 4.22; E 3.97; K 2.89; L 2.36
E8: Y 1.79; V 1.46; S 1.89; C 2.11; I 1.72; F 1.89; W 2.09; M 1.97; G 2.68; Q 2.02; R 1.65; T 1.79; L 2.1; A 1.91; P 2.02; N 2.44; K 1.69; H 2.27
Q6: V 2.11; P 2.09; K 2.26; S 2; Y 2.24; W 1.51; I 1.57; R 2.03; N 2.06; L 2.19; F 2.1; C 2.38; A 2.21; M 2.08; D 2.35; G 2.67; T 2.04; E 2.16; H 2.03
E15: L 1.96; K 2.96; N 1.75; H 2.15; F 1.56; Q 1.91; S 2.03; P 1.59; A 1.38; T 1.83; G 1.56; Y 1.8; D 2.59; R 2.06; W 2.29; M 1.39; I 1.71; V 2.33; C 1.67
R4: E 2.63; C 2.23; T 2.02; G 2.88; N 2.96; H 2.9; I 1.87; D 3.13; L 2.09; F 2.45; Y 2.11; S 2.1; Q 2.82; W 1.61; V 2.36; P 2.87; M 1.96; A 2.05; K 2.33
Y5: S 3.35; T 3.09; M 3.4; K 2.93; H 2.84; A 3.51; Q 2.63; I 2.77; P 3.45; L 2.13; N 3.29; V 1.93; R 3.56; W 2.21; D 3.55; E 3.07; F 2.5; C 2.44
F1: W 1.95; N 3.74; S 3.89; C 3.11; I 2.46; K 3.01; V 2.54; E 4.04; M 2.03; T 3.87; A 2.78; P 3.43; D 3.8; H 3.35; Y 2.33; Q 3.11; R 1.95; L 3.32; G 3.93

Variants of: B2
Assay: as above
Conditions: c terminus: a fixed tail appended

Protein stability index of substitutions, site by site:
Q12: G 2.88
K15: C 2.09; A 3.27; I 2.39
V2: N 5.04
E21: W 2.67
S4: G 2.39
K6: E 3.67
R16: F 2.34
K14: Y 2.27; V 3.09
E11: F 3.47; C 2.55; Y 2.37
E13: W 2.81
E8: Q 2.14; P 2.29
E10: H 1.66; M 2.42
R23: S 2.47
R22: C 2.69; V 2.89

From the supplement of paper PMC10567573
